In publication doi:10.1101/2024.10.07.617058:

Target: Twin-Strep-tagged human exocyst Subcomplex-1 (Exoc1:Exoc2:Exoc3:Exoc4) (human) (UniProt Q9NV70)
Assay: SPR

Sequence of UniProt Q9NV70 (Q9NV70 whole entry, chain 1 of 4): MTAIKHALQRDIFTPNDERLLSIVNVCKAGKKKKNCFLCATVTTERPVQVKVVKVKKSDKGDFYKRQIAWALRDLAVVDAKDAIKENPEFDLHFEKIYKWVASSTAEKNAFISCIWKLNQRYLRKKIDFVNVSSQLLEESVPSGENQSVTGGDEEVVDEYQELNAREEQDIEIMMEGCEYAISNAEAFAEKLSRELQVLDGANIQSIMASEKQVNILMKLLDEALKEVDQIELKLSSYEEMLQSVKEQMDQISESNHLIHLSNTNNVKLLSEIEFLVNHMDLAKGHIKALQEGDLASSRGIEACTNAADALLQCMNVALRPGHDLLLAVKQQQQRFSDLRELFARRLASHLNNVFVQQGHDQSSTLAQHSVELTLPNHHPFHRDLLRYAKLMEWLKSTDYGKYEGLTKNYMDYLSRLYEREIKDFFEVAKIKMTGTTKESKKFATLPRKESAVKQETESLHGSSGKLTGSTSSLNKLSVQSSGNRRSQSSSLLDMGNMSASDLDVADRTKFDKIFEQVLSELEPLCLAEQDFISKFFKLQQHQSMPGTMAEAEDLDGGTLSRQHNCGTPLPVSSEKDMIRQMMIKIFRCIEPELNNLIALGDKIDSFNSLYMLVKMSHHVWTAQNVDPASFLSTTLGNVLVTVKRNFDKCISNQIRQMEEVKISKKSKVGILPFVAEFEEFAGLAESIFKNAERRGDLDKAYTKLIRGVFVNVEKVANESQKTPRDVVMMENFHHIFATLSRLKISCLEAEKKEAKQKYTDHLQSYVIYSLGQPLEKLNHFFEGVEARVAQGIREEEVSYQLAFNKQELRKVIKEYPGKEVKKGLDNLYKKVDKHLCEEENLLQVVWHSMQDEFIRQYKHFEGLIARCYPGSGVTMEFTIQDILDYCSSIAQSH
Sequence of UniProt Q9NV70 (Q96KP1 whole entry, chain 2 of 4, further chain): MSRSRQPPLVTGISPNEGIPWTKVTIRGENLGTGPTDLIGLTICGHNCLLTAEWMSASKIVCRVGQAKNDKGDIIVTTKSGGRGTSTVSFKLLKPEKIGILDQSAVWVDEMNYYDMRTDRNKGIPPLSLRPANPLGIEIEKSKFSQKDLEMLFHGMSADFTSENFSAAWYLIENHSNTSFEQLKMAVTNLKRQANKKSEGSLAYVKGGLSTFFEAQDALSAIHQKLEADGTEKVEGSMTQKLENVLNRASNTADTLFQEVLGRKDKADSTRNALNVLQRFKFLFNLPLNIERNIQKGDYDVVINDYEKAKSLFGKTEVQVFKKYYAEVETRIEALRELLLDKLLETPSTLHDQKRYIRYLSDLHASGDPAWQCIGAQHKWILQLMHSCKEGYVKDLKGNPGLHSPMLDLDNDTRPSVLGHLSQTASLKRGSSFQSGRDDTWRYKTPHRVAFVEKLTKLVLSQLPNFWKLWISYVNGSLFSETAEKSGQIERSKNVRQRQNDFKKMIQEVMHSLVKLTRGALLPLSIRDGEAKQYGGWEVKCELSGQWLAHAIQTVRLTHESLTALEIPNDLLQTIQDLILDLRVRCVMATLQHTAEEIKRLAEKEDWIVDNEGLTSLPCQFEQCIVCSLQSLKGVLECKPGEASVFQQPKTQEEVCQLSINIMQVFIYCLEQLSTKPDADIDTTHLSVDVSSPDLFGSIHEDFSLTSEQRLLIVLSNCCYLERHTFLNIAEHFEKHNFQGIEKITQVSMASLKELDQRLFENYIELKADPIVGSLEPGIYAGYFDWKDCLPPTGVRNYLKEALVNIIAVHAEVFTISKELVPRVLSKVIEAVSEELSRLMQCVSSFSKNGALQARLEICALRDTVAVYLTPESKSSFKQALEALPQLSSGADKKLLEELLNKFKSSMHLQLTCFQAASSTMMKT
Sequence of UniProt Q9NV70 (O60645 whole entry, chain 3 of 4, further chain): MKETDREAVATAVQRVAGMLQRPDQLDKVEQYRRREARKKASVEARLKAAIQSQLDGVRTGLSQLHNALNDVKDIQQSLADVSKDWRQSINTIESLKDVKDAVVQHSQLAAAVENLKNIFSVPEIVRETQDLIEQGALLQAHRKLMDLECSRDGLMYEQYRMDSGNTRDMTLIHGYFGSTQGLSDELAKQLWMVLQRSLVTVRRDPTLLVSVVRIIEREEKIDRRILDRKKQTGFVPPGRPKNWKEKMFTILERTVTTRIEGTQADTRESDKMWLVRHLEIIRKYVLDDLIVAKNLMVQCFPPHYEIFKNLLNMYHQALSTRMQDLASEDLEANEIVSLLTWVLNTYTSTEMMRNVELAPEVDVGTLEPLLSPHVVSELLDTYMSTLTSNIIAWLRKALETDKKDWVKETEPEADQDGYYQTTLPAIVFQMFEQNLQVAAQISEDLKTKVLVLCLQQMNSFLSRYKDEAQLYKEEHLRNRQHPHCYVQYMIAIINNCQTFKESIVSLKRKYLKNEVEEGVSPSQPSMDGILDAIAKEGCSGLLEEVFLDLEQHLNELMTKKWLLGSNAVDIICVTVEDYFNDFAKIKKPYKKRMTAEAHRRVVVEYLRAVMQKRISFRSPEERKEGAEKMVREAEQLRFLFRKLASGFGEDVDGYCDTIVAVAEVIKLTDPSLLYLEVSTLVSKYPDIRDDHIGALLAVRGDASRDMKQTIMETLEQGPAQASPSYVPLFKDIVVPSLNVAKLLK
Sequence of UniProt Q9NV70 (Q96A65 whole entry, chain 4 of 4, further chain): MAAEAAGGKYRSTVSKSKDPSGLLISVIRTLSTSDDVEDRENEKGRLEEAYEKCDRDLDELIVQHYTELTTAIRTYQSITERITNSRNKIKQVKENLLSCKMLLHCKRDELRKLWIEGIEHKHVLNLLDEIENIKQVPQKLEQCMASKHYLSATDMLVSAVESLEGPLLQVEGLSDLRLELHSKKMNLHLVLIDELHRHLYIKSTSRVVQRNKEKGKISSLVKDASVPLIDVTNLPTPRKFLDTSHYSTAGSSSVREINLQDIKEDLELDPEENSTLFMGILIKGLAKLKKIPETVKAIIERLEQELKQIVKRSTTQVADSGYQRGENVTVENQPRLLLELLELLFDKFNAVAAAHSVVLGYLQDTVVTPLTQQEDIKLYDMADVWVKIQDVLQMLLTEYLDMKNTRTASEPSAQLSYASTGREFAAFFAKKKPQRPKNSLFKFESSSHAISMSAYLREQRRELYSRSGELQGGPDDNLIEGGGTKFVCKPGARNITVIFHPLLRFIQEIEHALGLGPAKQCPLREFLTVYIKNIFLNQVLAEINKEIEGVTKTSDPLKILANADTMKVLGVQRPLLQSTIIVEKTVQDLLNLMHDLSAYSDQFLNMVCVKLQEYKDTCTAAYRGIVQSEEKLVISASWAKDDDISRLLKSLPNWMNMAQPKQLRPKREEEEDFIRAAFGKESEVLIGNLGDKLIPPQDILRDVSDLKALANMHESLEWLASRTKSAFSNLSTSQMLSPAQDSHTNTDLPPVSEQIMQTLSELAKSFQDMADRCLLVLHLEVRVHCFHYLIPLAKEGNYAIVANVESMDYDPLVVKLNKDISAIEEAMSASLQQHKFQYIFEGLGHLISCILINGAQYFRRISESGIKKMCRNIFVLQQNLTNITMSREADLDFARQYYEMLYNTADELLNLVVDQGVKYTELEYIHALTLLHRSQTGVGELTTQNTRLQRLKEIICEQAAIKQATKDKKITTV

- Kd: 78 nM
Substance: human exocyst Subcomplex-2 (Exoc5:Exoc6:Exoc7:Exoc8) (from UniProt O00471 1-708; Q8TAG9 1-804; Q9UPT5 1-735; Q8IYI6 1-725)
